Here are results for 2 substances from PMC5422525.

Assay [1] has as its target Escherichia coli ClpX (E. coli) (UniProt P0A6H1).
Assay [2] addresses Caulobacter crescentus ClpX (C. crescentus) (UniProt B8GX14).
Sequence of UniProt B8GX14 (B8GX14 whole entry): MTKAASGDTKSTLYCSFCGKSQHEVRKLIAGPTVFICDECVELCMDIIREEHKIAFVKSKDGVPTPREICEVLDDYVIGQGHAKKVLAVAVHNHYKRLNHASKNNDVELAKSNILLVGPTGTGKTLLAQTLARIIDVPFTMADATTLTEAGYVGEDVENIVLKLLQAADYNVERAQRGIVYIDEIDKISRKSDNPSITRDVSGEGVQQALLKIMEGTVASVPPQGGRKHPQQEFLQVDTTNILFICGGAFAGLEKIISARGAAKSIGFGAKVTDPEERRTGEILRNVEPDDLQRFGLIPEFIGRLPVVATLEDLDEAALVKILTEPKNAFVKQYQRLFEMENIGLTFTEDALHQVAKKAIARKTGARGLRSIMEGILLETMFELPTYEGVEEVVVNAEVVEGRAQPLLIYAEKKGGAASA

Sequence of UniProt P0A6H1 (P0A6H1 whole entry): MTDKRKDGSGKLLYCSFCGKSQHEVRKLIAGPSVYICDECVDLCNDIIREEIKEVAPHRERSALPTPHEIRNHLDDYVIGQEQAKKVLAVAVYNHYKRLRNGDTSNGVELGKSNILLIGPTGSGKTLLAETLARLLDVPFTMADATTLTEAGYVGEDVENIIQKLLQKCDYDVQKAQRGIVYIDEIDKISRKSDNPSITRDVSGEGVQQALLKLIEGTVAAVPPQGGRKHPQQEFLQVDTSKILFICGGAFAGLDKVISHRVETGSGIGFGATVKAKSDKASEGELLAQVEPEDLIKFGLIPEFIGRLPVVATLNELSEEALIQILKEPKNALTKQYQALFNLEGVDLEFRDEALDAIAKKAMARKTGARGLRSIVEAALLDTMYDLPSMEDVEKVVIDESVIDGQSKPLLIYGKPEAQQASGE

For “Caulobacter crescentus ClpP (from UniProt B8GX16 1-209) (enzyme)”, the K (activation): degradation of 1 uM GFP-ssrA by 50 nM ClpX6 with varying concentrations of ClpP14, initial rates fitted to a first-order binding equation is 12.1 nM in assay [1] and 9.1 nM in assay [2]. In assay [1], “Escherichia coli ClpP (from UniProt P0A6G7 15-207) (enzyme)” returned a K (activation): degradation of 1 uM GFP-ssrA by 50 nM ClpX6 with varying concentrations of ClpP14, initial rates fitted to a first-order binding equation of 24.1 nM.
